Experiments:
[1] = molecular target: T1, cMBD2 MBD (NMR) (UniProt Q5EFL0 2-70); assay: NMR (HSQC, Nz-exchange); SPR running buffer: 10 mM HEPES pH 7.4, 50 mM NaCl, 3 mM MgCl2, 0.1 mM EDTA, 1 mM DTT, 0.1% BSA, 0.005% polysorbate 20 (samples prepared at pH 6.5); temperature not given; NMR buffer not given (low salt, up to 100 mM NaCl in titration); conditions: protein: recombinant; tags: tags removed by thrombin; blunt
[2] = molecular target: Trx-His6-MBD4 MBD (SPR) (Homo sapiens, UniProt O95243 80-148); assay: SPR; SPR running buffer: 10 mM HEPES pH 7.4, 50 mM NaCl, 3 mM MgCl2, 0.1 mM EDTA, 1 mM DTT, 0.1% BSA, 0.005% polysorbate 20 (samples prepared at pH 6.5); temperature not given; NMR buffer not given (low salt, up to 100 mM NaCl in titration); conditions: protein: recombinant, tags: N-terminal thioredoxin and His6 fusion (modified pET32a), retained for SPR, label: 3' biotin on strand 1 (SPR only), blunt
[3] = molecular target: Trx-His6-MBD4 MBD Y109F (SPR) (Homo sapiens, UniProt O95243 80-148, Y109F); assay: as above; conditions: protein: recombinant, tags: N-terminal thioredoxin and His6 fusion, retained for SPR, label: 3' biotin on strand 1 (SPR only), blunt
[4] = molecular target: T1, cMBD2 MBD (NMR); assay: NMR (TROSY HSQC); fast exchange between sites; SPR running buffer: 10 mM HEPES pH 7.4, 50 mM NaCl, 3 mM MgCl2, 0.1 mM EDTA, 1 mM DTT, 0.1% BSA, 0.005% polysorbate 20 (samples prepared at pH 6.5); temperature not given; NMR buffer not given (low salt, up to 100 mM NaCl in titration); conditions: protein: recombinant; tags: tags removed by thrombin; blunt
[5] = molecular target: T1, cMBD2 MBD (NMR); assay: NMR (TROSY HSQC); slow to intermediate exchange between sites; SPR running buffer: 10 mM HEPES pH 7.4, 50 mM NaCl, 3 mM MgCl2, 0.1 mM EDTA, 1 mM DTT, 0.1% BSA, 0.005% polysorbate 20 (samples prepared at pH 6.5); temperature not given; NMR buffer not given (low salt, up to 100 mM NaCl in titration); conditions: protein: recombinant; tags: tags removed by thrombin; blunt
[6] = one G:T mismatch (strand 1 G10, strand 2 T8)

Sequence of Trx-His6-MBD4 MBD Y109F (SPR) (O95243 80-148 Y109F): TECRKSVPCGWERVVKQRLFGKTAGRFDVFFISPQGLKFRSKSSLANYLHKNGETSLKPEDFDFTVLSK
T1 sequence (Q5EFL0 entry or part of it): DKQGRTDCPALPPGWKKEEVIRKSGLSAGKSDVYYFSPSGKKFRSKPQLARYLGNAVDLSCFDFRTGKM
Sequence of Trx-His6-MBD4 MBD (SPR) (O95243 80-148): as the sequence (O95243 80-148 Y109F) above, with F30Y counted along it

B1: mCpG (10 bp), wild-type (dsDNA)
DNA 1: GGATCGGCTC
DNA 2: GAGCCGATCC
modifications: 5-methyl-C at position 5 of both strands
- binding result [1]: binds

B2: mCpG/TpG mismatch (17 bp) (dsDNA)
DNA 1: GAGGCGCTCGGCGGCAG
DNA 2: CTGCCGCTGAGCGCCTC
modifications: 5-methyl-C at strand 1 position 9
- Kd [2, 6]: 11.5 ± 1.2 µM
- Kd [3, 6]: 14 ± 1.4 µM

B3: mCpG (17 bp) (dsDNA)
DNA 1: GAGGCGCTCGGCGGCAG
DNA 2: CTGCCGCCGAGCGCCTC
modifications: 5-methyl-C at strand 1 position 9 and strand 2 position 8
- Kd [2]: 6.4 ± 1.5 µM
- Kd [3]: 7.9 ± 1.6 µM

B4: Tandem (20 bp) (dsDNA)
DNA 1: GGATCGGCTCGGACCGACTC
DNA 2: GAGTCGGTCCGAGCCGATCC
modifications: 5-methyl-C at strand 1 positions 5 and 15 and strand 2 positions 5 and 15
- binding result [4]: binds

B5: CpG (17 bp) (dsDNA)
DNA 1: GAGGCGCTCGGCGGCAG
DNA 2: CTGCCGCCGAGCGCCTC
- Kd [3]: 19.6 ± 3.5 µM

B6: hmCpG (17 bp) (dsDNA)
DNA 1: GAGGCGCTCGGCGGCAG
DNA 2: CTGCCGCCGAGCGCCTC
modifications: 5-hydroxymethyl-C at strand 1 position 9 and strand 2 position 8
- Kd [3]: 16 ± 3 µM

B7: Inverted (10 bp) (dsDNA)
DNA 1: GGACCGACTC
DNA 2: GAGTCGGTCC
modifications: 5-methyl-C at position 5 of both strands
- binding result [1]: binds

B8: Tandem (30 bp) (dsDNA)
DNA 1: CACGGATCGGCTCCCCCGAGTCGGTCCCGC
DNA 2: GCGGGACCGACTCGGGGGAGCCGATCCGTG
modifications: 5-methyl-C at strand 1 positions 8 and 22 and strand 2 positions 8 and 22
- binding result [5]: binds

Source: article PMC4176167, “Solution structure and intramolecular exchange of methyl-cytosine binding domain protein 4 (MBD4) on DNA suggests a mechanism to scan for mCpG/TpG mismatches”
